In assay [1] the target is T1, BtuCD-F (BtuCD with BtuF D141C), ATPase site (Escherichia coli, UniProt P06611, C180S).
T1 construct: gene btuD
The following applies: 2 mM ATP, 10 mM MgCl2, pH 7.5, 30 °C; BtuCD WT with BtuF D141C.

For assay [2], the target named is BtuCDcys (cysteine mutant of the vitamin B12 ABC importer BtuCD: BtuC Q111C/W115L, cys-less BtuC and BtuD), reconstituted in liposomes (Escherichia coli) (UniProt P06609).
For assay [3] the target is unchanged. Put plainly: single-molecule fluorescence intensity change (TIRF microscopy); BtuCDcys labelled with Alexa Fluor 555 in 100-nm proteoliposomes (empty lumen, no ATP) tethered to glass by biotin-streptavidin; unlabelled BtuF added to the outside; 50 mM KPi, 200 mM KCl, pH 7.5; room temperature.

In the case of `Nc1ncnc2c1ncn2[C@@H]1O[C@H](COP(=O)(O)OP(=O)(O)OP(=O)(O)O)[C@@H](O)[C@H]1O` [ATP], the “NADH-coupled PK/LDH ATPase assay in proteoliposomes” value in assay [1] is reported as “ATPase rate of various BtuCD-F mutants with or without fluorescent label reconstituted in liposomes”.

In assay [2], “BtuF D141C (periplasmic vitamin B12-binding protein, cys-less, signal peptide removed) (from UniProt P37028 23-266) (natural protein)” gave a fraction of inside-out complexes that respond to ATP by a decrease of the Alexa Fluor 555 fluorescence of BtuCDcys (corrected for orientation; unlabelled BtuF in the lumen) of 18%; a fraction of liposomes in which the Alexa Fluor 555 fluorescence of BtuCDcys decreased upon addition of 2 mM ATP and 10 mM Mg2+ on the outside (unlabelled BtuF in the lumen; no events without BtuF) of 8%. For the same compound, in assay [3], the percent of right-side-out complexes with an increase in fluorescence upon addition of BtuF came out at 82% and the percent of traces with an increase in fluorescence upon addition of BtuF was found to be 45%.

The record behind these values is paper PMC5698293, “Single-molecule visualization of conformational changes and substrate transport in the vitamin B12 ABC importer BtuCD-F” (Nature Communications, 2017).
